From paper PMC4984425

B1: PDIA6 isolated from mouse liver microsomal fraction (natural protein)
chain: LYSSSDDVIELTPSNFNREVIQSDGLWLVEFYAPWCGHCQRLTPEWKKAATALKDVVKVGAVNADKHQSLGGQYGVQGFPTIKIFGANKNKPEDYQGGRTGEAIVDAALSALRQLVKDRLGGRSGGYSSGKQGRGDSSSKKDVVELTDDTFDKNVLDSEDVWMVEFYAPWCGHCKNLEPEWAAAATEVKEQTKGKVKLAAVDATVNQVLASRYGIKGFPTIKIFQKGESPVDYDGGRTRSDIVSRALDLFSDNAPPPELLEIINEDIAKKTCEEHQLCVVAVLPHILDTGAAGRNSYLEVLLKLADKYKKKMWGWLWTEAGAQYELENALGIGGFGYPAMAAINARKMKFALLKGSFSEQGINEFLRELSFGRGSTAPVGGGSFPTITPREPWDGKDGELPVEDDIDLSDVELDDLEKDEL

Experiments:
[1] = molecular target: FITC-labeled PDIA6 (mouse) (UniProt Q922R8); experiment: MST
[2] = molecular target: His-tagged IRE1α ER luminal domain (IRE1-NLD); experiment: SPR

Row | Molecule | Kd [1] | Kd [2]
1 | His-tagged IRE1α ER luminal domain (IRE1-NLD) (domain or fragment) | 20 nM | –
2 | B1 | – | 22 nM
